The values that follow come from patent US5039791A, “Peptide fragments of tissue plasminogen activator” (Monsanto Company, priority 1989, dated 1991).

Where no end group is shown, it is not given here.

The assay addresses T1, fibrin (Homo sapiens, UniProt P02671+P02675+P02679).
T1 construct: purchased Kabi Vitrum
T1 sequence (P02671 20-644 isoform P02671-2 limits assumed): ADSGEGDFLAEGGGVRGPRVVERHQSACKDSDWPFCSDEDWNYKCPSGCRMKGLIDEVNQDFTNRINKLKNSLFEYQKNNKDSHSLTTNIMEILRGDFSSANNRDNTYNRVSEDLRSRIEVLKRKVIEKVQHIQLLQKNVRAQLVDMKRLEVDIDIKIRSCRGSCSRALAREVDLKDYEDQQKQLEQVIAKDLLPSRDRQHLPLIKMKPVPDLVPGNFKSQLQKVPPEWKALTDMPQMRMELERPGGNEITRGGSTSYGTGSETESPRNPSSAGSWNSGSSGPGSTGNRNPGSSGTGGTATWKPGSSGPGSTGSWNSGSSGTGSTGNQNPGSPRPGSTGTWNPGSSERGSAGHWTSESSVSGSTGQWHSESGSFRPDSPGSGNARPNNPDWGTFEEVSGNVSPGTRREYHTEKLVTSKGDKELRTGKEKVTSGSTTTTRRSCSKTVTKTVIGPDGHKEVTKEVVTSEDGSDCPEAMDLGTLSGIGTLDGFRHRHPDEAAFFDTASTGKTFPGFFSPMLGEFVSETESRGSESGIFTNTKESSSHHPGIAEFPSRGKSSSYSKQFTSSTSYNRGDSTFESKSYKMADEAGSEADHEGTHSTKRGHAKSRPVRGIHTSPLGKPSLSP
T1 sequence (P02675 45-491 limits assumed): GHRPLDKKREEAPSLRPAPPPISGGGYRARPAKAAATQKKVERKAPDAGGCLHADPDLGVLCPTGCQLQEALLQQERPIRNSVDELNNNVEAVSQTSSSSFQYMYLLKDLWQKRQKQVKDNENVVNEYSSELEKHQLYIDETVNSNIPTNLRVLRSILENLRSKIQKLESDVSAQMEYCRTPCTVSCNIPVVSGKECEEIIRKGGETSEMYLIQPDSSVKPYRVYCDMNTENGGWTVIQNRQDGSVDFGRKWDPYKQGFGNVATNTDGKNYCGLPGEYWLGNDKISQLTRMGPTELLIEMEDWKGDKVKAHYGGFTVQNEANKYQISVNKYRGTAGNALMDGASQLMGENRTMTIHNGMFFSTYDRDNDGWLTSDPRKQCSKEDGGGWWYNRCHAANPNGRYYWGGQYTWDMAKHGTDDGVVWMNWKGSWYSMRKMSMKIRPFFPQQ
T1 sequence (P02679 27-437 isoform P02679-2 limits assumed): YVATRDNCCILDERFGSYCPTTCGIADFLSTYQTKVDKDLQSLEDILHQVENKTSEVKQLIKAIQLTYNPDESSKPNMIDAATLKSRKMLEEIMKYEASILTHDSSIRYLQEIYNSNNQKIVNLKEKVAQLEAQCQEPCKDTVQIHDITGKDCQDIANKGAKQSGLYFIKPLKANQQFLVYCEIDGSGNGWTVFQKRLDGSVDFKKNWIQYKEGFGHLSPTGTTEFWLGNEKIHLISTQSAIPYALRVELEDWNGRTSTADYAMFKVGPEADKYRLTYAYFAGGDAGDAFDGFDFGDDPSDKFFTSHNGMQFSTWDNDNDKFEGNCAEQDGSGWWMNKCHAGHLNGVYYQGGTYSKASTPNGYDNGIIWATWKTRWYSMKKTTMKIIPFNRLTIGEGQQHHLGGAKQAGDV
Kind of assay: Fibrin binding: binding of tPA to fibrin, tPA antigen in supernatant by ELISA. The note with it: 15 μg/ml peptide; 200 ng/ml single chain melanoma tPA, 200 μg/ml human fibrinogen; no peptide = 48. As for the experimental part: Binding of tPA to fibrin was measured using the conventional method of Rijken et al., J. Biol. Chem. 257, 2920-2925 (1982). This method involves mixing thrombin with a solution containing tPA and fibrinogen, centrifuging the resulting clot and measuring the concentration of tPA antigen in the supernatant. In a final volume of 200 μl, the following were combined: 200 ng/ml single chain melanoma tPA, 200 μg/ml human fibrinogen, 15 μg/ml tPA peptide, 1.1 mg/ml bovine serum albumin, 0.55 mg/ml bovine gamma globulin and 10 mM ε-amino caproic acid in PBSAT. Controls omitted fibrinogen, peptide or both. Mixtures were clotted by the addition of 1 unit/ml bovine thrombin, incubated one hour at room temperature and centrifuged. tPA antigen in the supernatant was measured by conventional ELISA and the percentage bound calculated by difference using the antigen level of a control mixture with no fibrinogen as 0% bound. […] An ELISA assay kit for tPA and PAI-1 was purchased from American Diagnostica Inc. and assays were performed according to printed protocols supplied by the manufacturer with the kit except that a single lot of melanoma tPA from American Diagnostica Inc. (product 111, lot 47-01) was used as the antigen standard throughout this work and 5.0 mg/ml of BSA and 2.5 mg/ml of bovine gamma globulin were included in ELISA buffers.
Background: In an ELISA, binding on a coated surface is turned into a signal by an enzyme label.
Consider “CDVPSCSTCGLRQYSQPQFRIKGGL-amide (CDVPSCSTCGLRQYSQPQFRIKGGL-NH2; cysteine pairing not given here) [Peptide 169, 25 amino acid synthetic peptide amide fragment of native human tPA]”, for which the “% Bound (binding of tPA to fibrin)” value is recorded as 55%. Regarding “CNSGRAQCHSVPVKSCSEPRCFNGG-amide (CNSGRAQCHSVPVKSCSEPRCFNGG-NH2; cysteine pairing not given here) [Peptide 147, 25 amino acid synthetic peptide amide fragment of native human tPA]”, the “% Bound (binding of tPA to fibrin)” value stood at 55%. As to “DGDAKPWCHVLKNRRLTWEYCDVPS-amide (DGDAKPWCHVLKNRRLTWEYCDVPS-NH2; cysteine pairing not given here) [Peptide 167, 25 amino acid synthetic peptide amide fragment of native human tPA]”, the “% Bound (binding of tPA to fibrin)” value is 50%. Regarding “EFCSTPACSEGNSDCYFGNGSAYRG [Peptide 160, 25 amino acid synthetic peptide fragment of native human tPA]”, the “% Bound (binding of tPA to fibrin)” value is 56%. Next, “ERFPPHHLTVILGRTYRVVPGEEEQ-NH2 [Peptide 176]”: 53%. In the case of “ERLKEAHVRLYPSSRCTSQHLLNRT-NH2 [Peptide 186]” it was 50%.

For the substance “GNSDCYFGNGSAYRGTHSLTESGAS-NH2 [Peptide 161]”, the “% Bound (binding of tPA to fibrin)” value was found to be 57%. Regarding “LCAGDTRSGGPQANLHDACQGDSGG-amide [Peptide 189, 25 amino acid synthetic peptide amide fragment of native human tPA]”, the “% Bound (binding of tPA to fibrin)” value is 50%. Turning to “LKNRRLTWEYCDVPSCSTCGLRQYS [Peptide 168, 25 amino acid synthetic peptide fragment of native human tPA]”, the “% Bound (binding of tPA to fibrin)” value stood at 54%.

On to “LLNRTVTDNMLCAGDTRSGGPQANL-NH2 [Peptide 188]”, for which the “% Bound (binding of tPA to fibrin)” value is 52%. With “LRSNRVEYCWCNSGRAQCHSVPVKS-amide (LRSNRVEYCWCNSGRAQCHSVPVKS-NH2; cysteine pairing not given here) [Peptide 146, 25 amino acid synthetic peptide amide fragment of native human tPA]”, the “% Bound (binding of tPA to fibrin)” value amounted to 54%. In the case of “LYFSDFVCQCPEGFAGKCCEIDTRA [Peptide 150, 25 amino acid synthetic peptide fragment of native human tPA]” it was 52%; in that of “PEGFAGKCCEIDTRATCYEDQGISY-amide (PEGFAGKCCEIDTRATCYEDQGISY-NH2; cysteine pairing not given here) [Peptide 151, 25 amino acid synthetic peptide amide fragment of native human tPA]”, 53%; in that of “QESSVVRTVCLPPADLQLPDWTECE-amide [Peptide 182, 25 amino acid synthetic peptide amide fragment of native human tPA]”, 52%.

In the case of “QLKSDSSRCAQESSVVRTVCLPPAD-amide (QLKSDSSRCAQESSVVRTVCLPPAD-NH2; cysteine pairing not given here) [Peptide 181, 25 amino acid synthetic peptide amide fragment of native human tPA]”, the “% Bound (binding of tPA to fibrin)” value is 49%. Next, “QQHQSWLRPVLRSNRVEYCWCNSGR-amide (QQHQSWLRPVLRSNRVEYCWCNSGR-NH2; cysteine pairing not given here) [Peptide 145, 25 amino acid synthetic peptide amide fragment of native human tPA]”: 56%.

Consider RRGARSYQVICRDEKTQMIYQQHQS [Peptide 143], for which the “% Bound (binding of tPA to fibrin)” value is recorded as 57%. Next, “SMILIGKVYTAQNPSAQALGLGKHN-NH2 [Peptide 164]”: 53%. In the case of SPSQEIHARFRRGARSYQVICRDEK [Peptide 142] it was 58%. Turning to “TAESGAECTNWNSSALAQKPYSGRR-NH2 [Peptide 154]”, the “% Bound (binding of tPA to fibrin)” value is reported as 56%. Next, WNSSALAQKPYSGRRPDAIRLGLGN [Peptide 155]: 54%; “YPSSRCTSQHLLNRTVTDNMLCAGD-amide [Peptide 187, 25 amino acid synthetic peptide amide fragment of native human tPA]”: 51%; “YSGRRPDAIRLGLGNHNYCRNPDRD-NH2 [Peptide 156]”: 52%. For the substance “YVFKAGKYSSEFCSTPACSEGNSDC-amide (YVFKAGKYSSEFCSTPACSEGNSDC-NH2; cysteine pairing not given here) [Peptide 159, 25 amino acid synthetic peptide amide fragment of native human tPA]”, the “% Bound (binding of tPA to fibrin)” value worked out at 54%.
